Measurements taken from US20200231652A1 (NATIONAL RESEARCH COUNCIL OF CANADA, published 2020).

Target: RSV-F (UniProt P03420 26-529)
Experiment: SPR, similar method as for Cetuximab

RSV-F, sequence (P03420 26-529): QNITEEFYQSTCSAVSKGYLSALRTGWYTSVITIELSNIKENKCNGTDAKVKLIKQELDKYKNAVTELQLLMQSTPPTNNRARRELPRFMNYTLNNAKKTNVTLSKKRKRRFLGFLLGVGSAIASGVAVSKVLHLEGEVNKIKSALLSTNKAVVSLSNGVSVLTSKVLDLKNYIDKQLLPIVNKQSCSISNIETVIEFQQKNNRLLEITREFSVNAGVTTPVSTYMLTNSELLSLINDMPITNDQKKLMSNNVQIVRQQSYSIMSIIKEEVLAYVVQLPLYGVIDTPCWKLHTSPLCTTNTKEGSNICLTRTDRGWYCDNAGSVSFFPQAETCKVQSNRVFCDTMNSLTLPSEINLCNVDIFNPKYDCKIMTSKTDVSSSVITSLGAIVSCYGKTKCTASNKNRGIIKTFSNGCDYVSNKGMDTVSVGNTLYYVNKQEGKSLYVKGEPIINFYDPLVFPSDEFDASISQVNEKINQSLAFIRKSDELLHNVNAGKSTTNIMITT

B1: Synagis (antibody, human IgG1, kappa, V domains shown)
VH: QVTLRESGPALVKPTQTLTLTCTFSGFSLSTSGMSVGWIRQPPGKALEWLADIWWDDKKDYNPSLKSRLTISKDTSKNQVVLKVTNMDPADTATYYCARSMITNWYFDVWGAGTTVTVSS
VL: DIQMTQSPSTLSASVGDRVTITCKCQLSVGYMHWYQQKPGKAPKLLIYDTSKLASGVPSRFSGSGSGTEFTLTISSLQPDDFATYYCFQGSGYPFTFGGGTKLEIKR
In the case of B1, the Kd is reported as 6.6 nM.
